This note sets out measurements from patent US20100196393A1 (ST LOUIS UNIVERSITY, published 2010).

Test [1] has as its target low density lipoprotein receptor-related protein-1 (LRP-1), mouse (mouse) (UniProt Q91ZX7). The test is described as follows: cell-based or functional assay.
In test [2] the target is beta-F1 ATPase (ATP synthase beta subunit), mouse, on brain microvessels (mouse, UniProt P56480 47-529). In words: cell-based or functional assay.

No end group written: not given here.

low density lipoprotein receptor-related protein-1 (LRP-1), mouse (mouse), sequence (Q91ZX7 20-4545): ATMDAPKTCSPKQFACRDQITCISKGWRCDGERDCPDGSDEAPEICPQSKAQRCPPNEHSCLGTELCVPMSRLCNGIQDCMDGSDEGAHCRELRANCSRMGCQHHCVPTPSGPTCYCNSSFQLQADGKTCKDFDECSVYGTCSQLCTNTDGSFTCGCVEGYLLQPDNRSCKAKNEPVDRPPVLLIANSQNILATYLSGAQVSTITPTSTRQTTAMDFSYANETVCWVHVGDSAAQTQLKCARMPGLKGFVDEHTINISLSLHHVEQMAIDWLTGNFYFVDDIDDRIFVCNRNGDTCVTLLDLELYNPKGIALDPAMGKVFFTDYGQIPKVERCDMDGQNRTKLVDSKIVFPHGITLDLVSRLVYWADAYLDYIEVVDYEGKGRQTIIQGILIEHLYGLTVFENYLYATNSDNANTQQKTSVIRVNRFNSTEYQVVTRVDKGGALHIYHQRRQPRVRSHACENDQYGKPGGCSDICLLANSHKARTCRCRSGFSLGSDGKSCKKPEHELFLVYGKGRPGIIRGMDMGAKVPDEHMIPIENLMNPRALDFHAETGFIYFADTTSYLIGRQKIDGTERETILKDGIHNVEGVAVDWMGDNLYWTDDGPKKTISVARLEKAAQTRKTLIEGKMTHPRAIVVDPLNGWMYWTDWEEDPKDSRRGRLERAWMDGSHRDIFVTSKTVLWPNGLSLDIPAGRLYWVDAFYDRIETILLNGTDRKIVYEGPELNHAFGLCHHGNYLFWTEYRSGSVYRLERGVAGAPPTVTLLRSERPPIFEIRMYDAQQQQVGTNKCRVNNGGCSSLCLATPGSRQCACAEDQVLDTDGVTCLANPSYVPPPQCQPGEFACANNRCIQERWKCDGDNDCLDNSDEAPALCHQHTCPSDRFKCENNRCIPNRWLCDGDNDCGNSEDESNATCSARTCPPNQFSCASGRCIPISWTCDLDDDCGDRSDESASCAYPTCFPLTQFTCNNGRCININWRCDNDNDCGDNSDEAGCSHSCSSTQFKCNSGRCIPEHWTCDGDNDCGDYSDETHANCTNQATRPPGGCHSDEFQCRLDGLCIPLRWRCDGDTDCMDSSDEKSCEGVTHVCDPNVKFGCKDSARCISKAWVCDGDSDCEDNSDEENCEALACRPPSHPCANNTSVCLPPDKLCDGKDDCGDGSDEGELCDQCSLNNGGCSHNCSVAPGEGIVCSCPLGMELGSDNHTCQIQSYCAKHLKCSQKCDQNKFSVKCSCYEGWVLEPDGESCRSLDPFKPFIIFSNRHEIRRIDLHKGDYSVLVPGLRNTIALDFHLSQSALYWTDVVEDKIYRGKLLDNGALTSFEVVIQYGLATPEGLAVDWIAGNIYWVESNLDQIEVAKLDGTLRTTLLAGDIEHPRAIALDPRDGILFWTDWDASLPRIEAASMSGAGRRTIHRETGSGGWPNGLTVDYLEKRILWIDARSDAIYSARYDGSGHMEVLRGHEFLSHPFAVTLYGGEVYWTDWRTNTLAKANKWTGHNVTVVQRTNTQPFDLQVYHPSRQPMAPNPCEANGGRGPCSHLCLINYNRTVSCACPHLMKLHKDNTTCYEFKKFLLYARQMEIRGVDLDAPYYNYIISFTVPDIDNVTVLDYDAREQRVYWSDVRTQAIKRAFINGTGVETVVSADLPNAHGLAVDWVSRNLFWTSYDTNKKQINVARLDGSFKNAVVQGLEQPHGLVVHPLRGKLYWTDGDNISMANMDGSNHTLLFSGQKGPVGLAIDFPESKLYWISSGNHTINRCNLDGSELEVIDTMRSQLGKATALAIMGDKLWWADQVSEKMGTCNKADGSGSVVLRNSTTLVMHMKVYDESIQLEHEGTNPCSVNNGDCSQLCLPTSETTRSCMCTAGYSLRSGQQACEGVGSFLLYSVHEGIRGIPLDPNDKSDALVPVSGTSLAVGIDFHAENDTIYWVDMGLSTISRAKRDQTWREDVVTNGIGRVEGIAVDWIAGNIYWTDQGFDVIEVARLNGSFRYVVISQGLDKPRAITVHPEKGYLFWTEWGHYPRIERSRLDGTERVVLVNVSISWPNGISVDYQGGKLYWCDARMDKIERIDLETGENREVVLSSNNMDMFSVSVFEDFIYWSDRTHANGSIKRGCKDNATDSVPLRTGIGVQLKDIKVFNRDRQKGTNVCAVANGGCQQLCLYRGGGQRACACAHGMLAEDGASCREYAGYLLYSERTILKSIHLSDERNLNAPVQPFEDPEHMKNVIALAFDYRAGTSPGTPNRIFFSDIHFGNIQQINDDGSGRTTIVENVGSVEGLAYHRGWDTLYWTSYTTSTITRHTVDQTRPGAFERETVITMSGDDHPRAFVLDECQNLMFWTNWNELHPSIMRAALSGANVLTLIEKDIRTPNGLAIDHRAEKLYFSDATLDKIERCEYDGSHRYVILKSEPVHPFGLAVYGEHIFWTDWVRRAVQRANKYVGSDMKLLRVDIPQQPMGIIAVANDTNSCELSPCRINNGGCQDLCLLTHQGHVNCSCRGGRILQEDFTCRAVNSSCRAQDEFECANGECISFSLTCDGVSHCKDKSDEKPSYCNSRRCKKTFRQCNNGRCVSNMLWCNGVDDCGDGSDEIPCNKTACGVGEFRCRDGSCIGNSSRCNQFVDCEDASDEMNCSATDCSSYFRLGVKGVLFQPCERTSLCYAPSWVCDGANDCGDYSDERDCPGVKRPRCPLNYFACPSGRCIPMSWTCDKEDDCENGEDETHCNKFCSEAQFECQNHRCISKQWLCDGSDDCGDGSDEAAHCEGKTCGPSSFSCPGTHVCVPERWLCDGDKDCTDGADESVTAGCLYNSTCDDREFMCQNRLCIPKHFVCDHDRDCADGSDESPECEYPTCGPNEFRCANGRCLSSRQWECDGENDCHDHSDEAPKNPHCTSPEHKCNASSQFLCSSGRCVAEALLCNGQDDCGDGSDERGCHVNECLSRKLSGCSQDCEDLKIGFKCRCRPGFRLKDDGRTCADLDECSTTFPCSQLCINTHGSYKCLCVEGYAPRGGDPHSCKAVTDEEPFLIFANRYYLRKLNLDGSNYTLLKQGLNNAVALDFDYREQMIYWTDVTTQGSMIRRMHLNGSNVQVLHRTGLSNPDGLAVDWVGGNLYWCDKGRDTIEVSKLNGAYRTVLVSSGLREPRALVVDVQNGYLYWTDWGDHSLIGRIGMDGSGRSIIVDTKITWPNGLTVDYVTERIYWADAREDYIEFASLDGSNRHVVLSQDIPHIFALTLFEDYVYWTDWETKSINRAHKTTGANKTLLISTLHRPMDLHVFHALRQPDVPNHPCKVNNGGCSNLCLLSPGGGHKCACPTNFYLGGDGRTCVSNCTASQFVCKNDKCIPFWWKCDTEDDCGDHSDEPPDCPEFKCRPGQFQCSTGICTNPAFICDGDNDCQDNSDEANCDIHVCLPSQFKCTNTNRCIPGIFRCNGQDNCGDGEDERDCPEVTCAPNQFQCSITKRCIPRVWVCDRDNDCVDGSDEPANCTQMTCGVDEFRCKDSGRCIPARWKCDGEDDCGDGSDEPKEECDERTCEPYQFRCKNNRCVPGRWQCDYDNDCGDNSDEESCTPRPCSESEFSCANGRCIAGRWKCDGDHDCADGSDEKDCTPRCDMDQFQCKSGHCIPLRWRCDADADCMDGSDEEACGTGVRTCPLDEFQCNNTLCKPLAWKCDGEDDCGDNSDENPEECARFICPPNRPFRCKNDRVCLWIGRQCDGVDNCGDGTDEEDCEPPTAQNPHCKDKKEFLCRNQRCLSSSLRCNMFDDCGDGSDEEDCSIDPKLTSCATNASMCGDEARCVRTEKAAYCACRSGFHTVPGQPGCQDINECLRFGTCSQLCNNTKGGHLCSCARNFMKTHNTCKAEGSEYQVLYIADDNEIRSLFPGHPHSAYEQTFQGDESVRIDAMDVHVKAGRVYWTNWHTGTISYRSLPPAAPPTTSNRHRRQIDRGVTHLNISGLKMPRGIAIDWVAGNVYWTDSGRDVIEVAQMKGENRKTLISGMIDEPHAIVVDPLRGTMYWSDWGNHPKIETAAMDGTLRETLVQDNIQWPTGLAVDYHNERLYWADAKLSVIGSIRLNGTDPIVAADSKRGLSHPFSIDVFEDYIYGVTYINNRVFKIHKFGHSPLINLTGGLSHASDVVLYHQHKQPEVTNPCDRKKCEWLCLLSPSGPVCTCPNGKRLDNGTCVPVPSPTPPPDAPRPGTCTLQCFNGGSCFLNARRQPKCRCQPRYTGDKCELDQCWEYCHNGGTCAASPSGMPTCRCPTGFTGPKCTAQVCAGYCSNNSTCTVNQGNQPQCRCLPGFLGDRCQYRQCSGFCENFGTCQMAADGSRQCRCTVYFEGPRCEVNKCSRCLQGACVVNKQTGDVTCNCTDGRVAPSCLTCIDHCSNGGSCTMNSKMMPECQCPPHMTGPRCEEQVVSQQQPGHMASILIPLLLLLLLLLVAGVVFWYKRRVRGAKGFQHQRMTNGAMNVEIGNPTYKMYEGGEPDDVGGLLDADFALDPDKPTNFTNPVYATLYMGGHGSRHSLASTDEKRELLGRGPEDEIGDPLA
beta-F1 ATPase (ATP synthase beta subunit), mouse, on brain microvessels, sequence (P56480 47-529): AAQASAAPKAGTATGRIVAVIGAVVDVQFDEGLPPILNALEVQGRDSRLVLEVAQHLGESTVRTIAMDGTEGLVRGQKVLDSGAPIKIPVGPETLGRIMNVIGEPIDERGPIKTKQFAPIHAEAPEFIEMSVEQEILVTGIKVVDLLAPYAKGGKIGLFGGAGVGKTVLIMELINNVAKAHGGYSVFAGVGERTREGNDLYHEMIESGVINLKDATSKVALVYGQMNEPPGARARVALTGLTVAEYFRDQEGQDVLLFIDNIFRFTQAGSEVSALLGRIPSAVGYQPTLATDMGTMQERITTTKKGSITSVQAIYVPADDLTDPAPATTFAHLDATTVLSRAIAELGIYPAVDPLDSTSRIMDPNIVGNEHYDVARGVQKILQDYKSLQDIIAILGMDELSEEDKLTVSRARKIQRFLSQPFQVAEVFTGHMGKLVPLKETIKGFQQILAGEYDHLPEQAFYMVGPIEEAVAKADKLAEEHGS

In test [1], “42 amino acid murine amyloid beta (Aβ42) (from UniProt P12023 672-713) (peptide)” came in with a brain efflux of icv I-Aβ42 after two iv injections of anti-LRP-1 antisense cocktail, relative to saline treated mice of 0.87%.

B1: PACAP27 (pituitary adenylate cyclase-activating polypeptide, 27 amino acid form) (peptide, UniProt P18509 132-158, looked up)
peptide: HSDGIFTDSYSRYRKQMAVKKYLAAVL
modifications: ends and bridges not checked; also: 131I radioiodinated, residue not given here
For B1, the “uptake of I-PACAP27 delivered by brain perfusion, 24 h after iv antisense cocktail against beta-F1 ATPase” value in test [2] was determined as 4 fold.
